Patent US20170088628A1, “Compositions and Methods for Identifying B Cell Malignancies Responsive to B Cell Depleting Therapy” (MedImmune, LLC, priority 2014, published 2017)

Columns and labels:
[1] = system: Chronic lymphocytic leukemia; experiment: CP-1019, Chronic lymphocytic leukemia patients treated with MEDI-551 or Rituximab+Bendamustine; assay type: in vivo, human; conditions: of 22 MEDI-551-treated / 12 Rituximab-treated patients
Procedure: miR-629 expression levels were measured in baseline peripheral blood mononucleated cell (PBMC) samples from Chronic lymphocytic leukemia patients treated with MEDI-551 or Rituximab+Bendamustine (CP-1019). • 22 MEDI-551-treated patients (10 CR/PR; 3 PD; 4 SD) • 12 Rituximab-treated patients (6 CR/PR; 2 PD; 2 SD)

Daudi = experiment: ADCC assay after miR-629 over-expression; assay type: cell-based, human; conditions: miR-629 over-expressed (miR-629 mimic)
Procedure: (§1) FIGS. 14A-D are graphs showing the results of an antibody dependent cytotoxicity (ADCC) assay. miR-629 was overexpressed in the specified cell type, and the cells were then treated with an anti-CD19 antibody (MEDI551).
(§2) The effect of altering miR-629 on sensitivity to treatment with an anti-CD19 antibody (MEDI551) was explored. Human leukemia and lymphoma cell lines Daudi, Toledo, and RL were obtained from American Type Culture Collection (ATCC); Karpas 1106P, Karpas 422, OCI-Ly-19, MEC2 were obtained from Deutsche Sammlung von Mikroorganismen und Zellkulturen (DSMZ, Germany). Cell lines were transfected with […] of a miR-629 mimic (Karpas 1106P, Karpas 422, Daudi, MEC2, OCI-Ly-19, SU-DHL-6, and Toledo), a miR-629 hairpin inhibitor (RL and ARH-77), or respective negative control oligonucleotides (all from Dharmacon) using PrimeFect (Lonza) for 24 hours. CD19 and CD20 surface expression was determined by flow cytometry (LSRII, BD Biosciences) using their respective fluorescently labeled monoclonal antibodies. Surface expression is reported as mean fluorescent intensity (MFI) and was averaged for untransfected as well as miR-629 and negative control transfected cells.

MEC-2 = experiment: ADCC assay after miR-629 over-expression; assay type: cell-based, human; conditions: MEC-2, miR-629 over-expressed (miR-629 mimic)
Procedure: as §1, §2

SU-DHL-6 = experiment: ADCC assay after miR-629 over-expression; assay type: cell-based, human; conditions: SU-DHL-6, miR-629 over-expressed (miR-629 mimic)
Procedure: as §1, §2

Toledo = experiment: ADCC assay after miR-629 over-expression; assay type: cell-based, human; conditions: miR-629 over-expressed (miR-629 mimic)
Procedure: as §1, §2

Toledo cell lines = experiment: in vitro ADCC assay; assay type: cell-based, human
[2] = system: DB (diffuse large cell lymphoma); experiment: in vitro ADCC assay; assay type: cell-based, human
Karpas-422 = experiment: in vitro Antibody-dependent cellular cytotoxicity (ADCC) assay; assay type: cell-based, human; conditions: Karpas-422, in vitro ADCC
[3] = afucosylated mAb relative to mAb anti-CD19-2; cited from earlier work
Oci-Ly-19 = experiment: in vitro ADCC assay; assay type: cell-based, human; conditions: Oci-Ly-19, in vitro ADCC
ARH-77 = experiment: in vitro ADCC assay; assay type: cell-based, human; conditions: ARH-77, in vitro ADCC
[4] = system: Karpas 422 cells expressing miR-629; experiment: in vitro ADCC in miR-629 over-expressing cells; assay type: cell-based, human; conditions: miR-629 over-expression vs vector control
Procedure: FIGS. 12A and 12B are graphs. […] LDH release has been a known prognostic factor in lymphoma for many years and is measured routinely in clinical practice. […] Therefore, it is likely that miR-629 expression levels are related to the aggressiveness of the tumor. This could, in part, explain the correlation between miR-629 and response to MEDI-551.
The diffuse large B-cell lymphoma cell line Karpas-422 was transduced with a lentiviral vector over-expressing miR-629 or a scrambled miRNA control (Open Biosystems, Huntsville, Ala.) at an MOI of 2-20. Transduced cells were expanded for 1-2 weeks. Utilizing RFP, cells were sorted by fluorescence-activated cell sorting (FACS) into high miR-629 and low miR-629 populations. Clones were also generated using the limiting dilution method. Over-expression of miR-629 was evaluated by TaqMan QPCR.

[5] = system: diffuse large B-cell lymphoma cell lines; experiment: in vitro ADCC assays, high versus low sensitivity cell lines; assay type: cell-based, human; conditions: in other cases 1000-fold or more
Excerpt: The following microRNAs had significant differences: miR-629; miR-99b; miR-let-7e; miR-15a; and miR-29a.

SUD-HL-6 = experiment: in vitro ADCC assay; assay type: cell-based, human; conditions: SUD-HL-6, in vitro ADCC
RL = experiment: in vitro ADCC assay; assay type: cell-based, human
[6] = system: Relapsed or Refractory Advanced B-Cell Malignancies; experiment: Clinical Trial No. CP204, Phase 1 dose-escalation study of MEDI-551 as a single agent; assay type: in vivo, human
Procedure: miR-629 expression levels were measured in baseline whole blood samples from diffuse large B cell lymphoma (DLBCL), follicular lymphoma (FL), and Chronic lymphocytic leukemia (CLL) patients treated with an anti-CD19 antibody treatment as a single agent in Clinical Trial No. CP204, A Phase 1, Dose-escalation Study of MEDI-551, a Humanized Monoclonal Antibody Directed Against CD19, in Adult Subjects With Relapsed or Refractory Advanced B-Cell Malignancies.

FccRIIIA = FccRIIIA (Homo sapiens, UniProt P08637); conditions: afucosylated mAb relative to mAb anti-CD19-2; cited from earlier work
FccRIIIA, sequence (P08637 17-254): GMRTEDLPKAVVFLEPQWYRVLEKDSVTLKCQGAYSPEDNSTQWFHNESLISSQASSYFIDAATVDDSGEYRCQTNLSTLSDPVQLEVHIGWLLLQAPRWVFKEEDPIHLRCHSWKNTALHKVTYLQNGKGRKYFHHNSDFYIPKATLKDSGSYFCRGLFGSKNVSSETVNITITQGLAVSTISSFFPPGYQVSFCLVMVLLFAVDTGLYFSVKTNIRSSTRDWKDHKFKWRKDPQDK

With “Rituximab: anti-CD20 antibody therapy used as comparator [reference compound]” the “CR/PR, number of patients” value [1] was 6 and the “PD, number of patients” value [1] was 2.

B1: MEDI-551: afucosylated form of the CD19 mAb anti-CD19-2, developed by humanization and affinity optimization of the HB12b mAb (antibody, chains of the INN, looked up, V domains shown)
VH: EVQLVESGGGLVQPGGSLRLSCAASGFTFSSSWMNWVRQAPGKGLEWVGRIYPGDGDTNYNVKFKGRFTISRDDSKNSLYLQMNSLKTEDTAVYYCARSGFITTVRDFDYWGQGTLVTVSS
VL: EIVLTQSPDFQSVTPKEKVTITCRASESVDTFGISFMNWFQQKPDQSPKLLIHEASNQGSGVPSRFSGSGSGTDFTLTINSLEAEDAATYYCQQSKEVPFTFGGGTKVEIK
modifications: afucosylated
In the case of B1, the “reduced sensitivity to anti-CD19 antibody” value (Daudi) is reported as 15-25%, the “reduced sensitivity to anti-CD19 antibody” value (MEC-2) is reported as 15-25% and the difference in cytotoxicity (SU-DHL-6) is reported as 15-20%. For the same molecule, the difference in cytotoxicity (Toledo) was 15-20%, the “sensitivity to anti-CD19 antibody treatment” value (Toledo cell lines) was “high sensitivity” and the “sensitivity to anti-CD19 antibody treatment” value [2] was “low sensitivity”. The “sensitivity to anti-CD19 antibody treatment” value (Karpas-422) was “highly sensitive”, the “sensitivity to anti-CD19 antibody treatment” value (Karpas-422; listed as anti-CD19 antibody) was “high sensitivity” and the ADCC activity [3] was “enhanced”. The “sensitivity to anti-CD19 antibody treatment” value (Oci-Ly-19) was “high sensitivity”, the “sensitivity to anti-CD19 antibody treatment” value (ARH-77) was “low sensitivity” and the “shift in Ec50 for anti-CD19 antibody treatment in in vitro ADCC” value [4] was “slight shift”. For the same molecule, the “EC50s for the high sensitivity cell lines lower than the low sensitivity cell lines” value [5] was “at least 100 fold”, the “sensitivity to anti-CD19 antibody treatment” value (SUD-HL-6) was “high sensitivity” and the “sensitivity to anti-CD19 antibody treatment” value (RL) was “low sensitivity”. The “CR/PR (complete or partial response), number of patients” value (“CR/PR (complete or partial response)” below) ([6]; Chronic lymphocytic leukemia) was 3, the “PD (progressive disease), number of patients” value (“PD (progressive disease)” below) ([6]; Chronic lymphocytic leukemia) was 3 and the “CR/PR (complete or partial response)” value ([6]; diffuse large B-cell lymphoma) was 5. The “PD (progressive disease)” value ([6]; diffuse large B-cell lymphoma) was 10, the “CR/PR (complete or partial response)” value ([6]; follicular lymphoma) was 6 and the “PD (progressive disease)” value ([6]; follicular lymphoma) was 2. The “affinity to FccRIIIA” value (FccRIIIA) was “increased”, the “CR/PR, number of patients” value [1] was 10 and the “PD, number of patients” value [1] was 3.
